Source: article PMC8151509

Experiments:
[1] = biological target: C1qCLR_nc2 (wild type, devoid of the additional GPP triplets), P02745;P02747; test: SPR; settings: chain shown with the change; immobilized C1qCLR_nc2; parent: est. 100; read off a plot
[2] = biological target: C1qstem_nc2, P02745;P02746; test: SPR; settings: chain shown with the change; immobilized C1qstem_nc2; parent: est. 100; read off a plot
[3] = biological target: C1qCLR_nc2 (wild type, devoid of the additional GPP triplets) (UniProt P02745); test: SPR; LAIR-1 Ig-like domain injected at increasing concentrations (4-128, 4-256 or 3.125-400 µM) over immobilized C1q, rC1q variants, C1qCLR_nc2 variants or C1qstem_nc2 (CM5, amine coupling); 25 °C; 50 mM Tris, 150 mM NaCl, 2 mM CaCl2, 0.05% surfactant P20, pH 7.5; KD from Req versus concentration, steady-state model
[4] = biological target: C1qCLR_nc2 A_R72E (UniProt P02745); test: as above
[5] = biological target: C1qCLR_nc2 B_K65E (UniProt P02745); test: as above
[6] = biological target: C1qstem_nc2 (UniProt P02745); test: as above

Sequence of C1qCLR_nc2 (wild type, devoid of the additional GPP triplets), P02745;P02747 (chain, as listed by the source, chain 1 of 3): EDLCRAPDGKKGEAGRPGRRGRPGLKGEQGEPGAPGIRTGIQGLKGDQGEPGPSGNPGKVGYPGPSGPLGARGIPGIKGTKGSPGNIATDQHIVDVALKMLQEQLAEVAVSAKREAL
Sequence of C1qCLR_nc2 (wild type, devoid of the additional GPP triplets), P02745;P02747 (chain, as listed by the source, chain 2 of 3): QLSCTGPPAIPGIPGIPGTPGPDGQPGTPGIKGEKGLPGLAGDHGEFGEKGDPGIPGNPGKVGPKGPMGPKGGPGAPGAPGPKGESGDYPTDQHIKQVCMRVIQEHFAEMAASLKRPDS
Sequence of C1qCLR_nc2 (wild type, devoid of the additional GPP triplets), P02745;P02747 (chain, as listed by the source, chain 3 of 3): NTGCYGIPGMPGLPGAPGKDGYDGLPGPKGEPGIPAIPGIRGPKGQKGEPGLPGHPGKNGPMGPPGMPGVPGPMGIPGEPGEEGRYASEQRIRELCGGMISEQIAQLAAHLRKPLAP
Sequence of C1qstem_nc2, P02745;P02746 (chain, as listed by the source, chain 1 of 3): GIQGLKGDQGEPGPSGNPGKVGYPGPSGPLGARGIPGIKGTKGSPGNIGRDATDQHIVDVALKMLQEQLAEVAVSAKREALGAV
Sequence of C1qstem_nc2, P02745;P02746 (chain, as listed by the source, chain 2 of 3): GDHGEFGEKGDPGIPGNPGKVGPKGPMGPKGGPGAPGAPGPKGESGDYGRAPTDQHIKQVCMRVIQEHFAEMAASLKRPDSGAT
Sequence of C1qstem_nc2, P02745;P02746 (chain, as listed by the source, chain 3 of 3): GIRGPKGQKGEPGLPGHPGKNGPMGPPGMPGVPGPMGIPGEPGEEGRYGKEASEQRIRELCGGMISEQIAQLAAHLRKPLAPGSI

Binder | percent of parent (% of LAIR-1 WT binding) [1] | percent of parent (% of LAIR-1 WT binding) [2] | Kd [3] | Kd [4] | Kd [5] | Kd [6]
LAIR-1 Ig-like domain, wild type, Q6GTX8 E72K (protein) QEEDLPRPSISAEPGTVIPLGSHVTFVCRGPVGVQTFRLERDSRSTYNDTKDVSQASPSESEARFRIDSVREGNAGLYRCIYYKPPKWSEQSDYLELLVKE | 21 | 21 | – | – | – | –
LAIR-1 Ig-like domain, wild type, Q6GTX8 E61A (protein) QEEDLPRPSISAEPGTVIPLGSHVTFVCRGPVGVQTFRLARDSRSTYNDTEDVSQASPSESEARFRIDSVREGNAGLYRCIYYKPPKWSEQSDYLELLVKE | 11 | 6 | – | – | – | –
LAIR-1 Ig-like domain, wild type (domain or fragment) QEEDLPRPSISAEPGTVIPLGSHVTFVCRGPVGVQTFRLERDSRSTYNDTEDVSQASPSESEARFRIDSVREGNAGLYRCIYYKPPKWSEQSDYLELLVKE | – | – | 179 µM | 295 µM | 189 µM | 175 µM
LAIR-1 Ig-like domain, wild type, Q6GTX8 E111K (protein) QEEDLPRPSISAEPGTVIPLGSHVTFVCRGPVGVQTFRLERDSRSTYNDTEDVSQASPSESEARFRIDSVREGNAGLYRCIYYKPPKWSKQSDYLELLVKE | 36 | 34 | – | – | – | –

Results, then the binder that gave them:

percent of parent (% of LAIR-1 WT binding) [1] | percent of parent (% of LAIR-1 WT binding) [2] | Kd [3] | Kd [4] | Kd [5] | Kd [6] | Binder
60 | 69 | – | – | – | – | LAIR-1 Ig-like domain, wild type, Q6GTX8 P107R (protein) QEEDLPRPSISAEPGTVIPLGSHVTFVCRGPVGVQTFRLERDSRSTYNDTEDVSQASPSESEARFRIDSVREGNAGLYRCIYYKPRKWSEQSDYLELLVKE
21 | 20 | – | – | – | – | LAIR-1 Ig-like domain, wild type, Q6GTX8 I102L (protein) QEEDLPRPSISAEPGTVIPLGSHVTFVCRGPVGVQTFRLERDSRSTYNDTEDVSQASPSESEARFRIDSVREGNAGLYRCLYYKPPKWSEQSDYLELLVKE
